The labels stand for the following.
B1: Pistol ribozyme (parent)
chain: GGGUCGUUGUUCCAUAAUCGCGUGGAUAUGGCACGCAAGUUUCUACCGGGCACCGUAAAUGUCCGACUGGAGCCGUUCGGGCGGCUAUAAACAGACCUCAGGCCCGAAGCGUGGCGGCACCUGCCGCCGGUGGUAAAAAAGAUCGGAAGAGCACACGUCU

The variants in the series derive from B1. Kind of series: aptazyme ON/OFF ratio, guanine; higher = stronger switching; co-transcriptional cleavage with and without guanine.
Consider GGGUCGUUCGCAAAUAAUCGCGUGGAUAUGGCACGCAAGUUUCUACCGGGCACCGUAAAUGUCCGACUGGAGCCGUUCGGGCGGCUAUAAACAGACCUCAGGCCCGAAGCGUGGCGGCACCUGCCGCCGGUGGUAAAAAAGAUCGGAAGAGCACACGUCU [G9C U10G U11C C12A C13A], for which the “aptazyme ON/OFF ratio” value amounted to 1.22. The result for GGGUCGUUCGCAUAUAAUCGCGUGGAUAUGGCACGCAAGUUUCUACCGGGCACCGUAAAUGUCCGACUGGAGCCGUUCGGGCGGCUAUAAACAGACCUCAGGCCCGAAGCGUGGCGGCACCUGCCGCCGGUGGUAAAAAAGAUCGGAAGAGCACACGUCU [G9C U10G U11C C12A C13U] reads 1.25; that for GGGUCGUUCGAGAAUAAUCGCGUGGAUAUGGCACGCAAGUUUCUACCGGGCACCGUAAAUGUCCGACUGGAGCCGUUCGGGCGGCUAUAAACAGACCUCAGGCCCGAAGCGUGGCGGCACCUGCCGCCGGUGGUAAAAAAGAUCGGAAGAGCACACGUCU [G9C U10G U11A C12G C13A], 1.11. In the case of GGGUCGUUCGAGGAUAAUCGCGUGGAUAUGGCACGCAAGUUUCUACCGGGCACCGUAAAUGUCCGACUGGAGCCGUUCGGGCGGCUAUAAACAGACCUCAGGCCCGAAGCGUGGCGGCACCUGCCGCCGGUGGUAAAAAAGAUCGGAAGAGCACACGUCU [G9C U10G U11A C12G C13G], the “aptazyme ON/OFF ratio” value was determined as 1.24.

As for GGGUCGUUCGAGUAUAAUCGCGUGGAUAUGGCACGCAAGUUUCUACCGGGCACCGUAAAUGUCCGACUGGAGCCGUUCGGGCGGCUAUAAACAGACCUCAGGCCCGAAGCGUGGCGGCACCUGCCGCCGGUGGUAAAAAAGAUCGGAAGAGCACACGUCU [G9C U10G U11A C12G C13U], the “aptazyme ON/OFF ratio” value was determined as 1.07. In the case of GGGUCGUUCGACAAUAAUCGCGUGGAUAUGGCACGCAAGUUUCUACCGGGCACCGUAAAUGUCCGACUGGAGCCGUUCGGGCGGCUAUAAACAGACCUCAGGCCCGAAGCGUGGCGGCACCUGCCGCCGGUGGUAAAAAAGAUCGGAAGAGCACACGUCU [G9C U10G U11A C13A], the “aptazyme ON/OFF ratio” value stood at 1.08. As for GGGUCGUUCGACGAUAAUCGCGUGGAUAUGGCACGCAAGUUUCUACCGGGCACCGUAAAUGUCCGACUGGAGCCGUUCGGGCGGCUAUAAACAGACCUCAGGCCCGAAGCGUGGCGGCACCUGCCGCCGGUGGUAAAAAAGAUCGGAAGAGCACACGUCU [G9C U10G U11A C13G], the “aptazyme ON/OFF ratio” value turned out to be 1.09. As for GGGUCGUUCGACUAUAAUCGCGUGGAUAUGGCACGCAAGUUUCUACCGGGCACCGUAAAUGUCCGACUGGAGCCGUUCGGGCGGCUAUAAACAGACCUCAGGCCCGAAGCGUGGCGGCACCUGCCGCCGGUGGUAAAAAAGAUCGGAAGAGCACACGUCU [G9C U10G U11A C13U], the “aptazyme ON/OFF ratio” value amounted to 1.05. The result for GGGUCGUUCGCCUAUAAUCGCGUGGAUAUGGCACGCAAGUUUCUACCGGGCACCGUAAAUGUCCGACUGGAGCCGUUCGGGCGGCUAUAAACAGACCUCAGGCCCGAAGCGUGGCGGCACCUGCCGCCGGUGGUAAAAAAGAUCGGAAGAGCACACGUCU [G9C U10G U11C C13U] reads 1.06. As to GGGUCGUUCGCCAAUAAUCGCGUGGAUAUGGCACGCAAGUUUCUACCGGGCACCGUAAAUGUCCGACUGGAGCCGUUCGGGCGGCUAUAAACAGACCUCAGGCCCGAAGCGUGGCGGCACCUGCCGCCGGUGGUAAAAAAGAUCGGAAGAGCACACGUCU [G9C U10G U11C C13A], the “aptazyme ON/OFF ratio” value was determined as 1.24. Turning to GGGUCGUUCGCCGAUAAUCGCGUGGAUAUGGCACGCAAGUUUCUACCGGGCACCGUAAAUGUCCGACUGGAGCCGUUCGGGCGGCUAUAAACAGACCUCAGGCCCGAAGCGUGGCGGCACCUGCCGCCGGUGGUAAAAAAGAUCGGAAGAGCACACGUCU [G9C U10G U11C C13G], the “aptazyme ON/OFF ratio” value came to 1.03. The result for GGGUCGUUCGACCAUAAUCGCGUGGAUAUGGCACGCAAGUUUCUACCGGGCACCGUAAAUGUCCGACUGGAGCCGUUCGGGCGGCUAUAAACAGACCUCAGGCCCGAAGCGUGGCGGCACCUGCCGCCGGUGGUAAAAAAGAUCGGAAGAGCACACGUCU [G9C U10G U11A] reads 1.08.

In the case of GGGUCGUUCGGCCAUAAUCGCGUGGAUAUGGCACGCAAGUUUCUACCGGGCACCGUAAAUGUCCGACUGGAGCCGUUCGGGCGGCUAUAAACAGACCUCAGGCCCGAAGCGUGGCGGCACCUGCCGCCGGUGGUAAAAAAGAUCGGAAGAGCACACGUCU [G9C U10G U11G], the “aptazyme ON/OFF ratio” value worked out at 1.09. The value for GGGUCGUUCGCCCAUAAUCGCGUGGAUAUGGCACGCAAGUUUCUACCGGGCACCGUAAAUGUCCGACUGGAGCCGUUCGGGCGGCUAUAAACAGACCUCAGGCCCGAAGCGUGGCGGCACCUGCCGCCGGUGGUAAAAAAGAUCGGAAGAGCACACGUCU [G9C U10G U11C] was 1.06; that for GGGUCGUUCGGACAUAAUCGCGUGGAUAUGGCACGCAAGUUUCUACCGGGCACCGUAAAUGUCCGACUGGAGCCGUUCGGGCGGCUAUAAACAGACCUCAGGCCCGAAGCGUGGCGGCACCUGCCGCCGGUGGUAAAAAAGAUCGGAAGAGCACACGUCU [G9C U10G U11G C12A] was 1.18; that for GGGUCGUUCGCUUAUAAUCGCGUGGAUAUGGCACGCAAGUUUCUACCGGGCACCGUAAAUGUCCGACUGGAGCCGUUCGGGCGGCUAUAAACAGACCUCAGGCCCGAAGCGUGGCGGCACCUGCCGCCGGUGGUAAAAAAGAUCGGAAGAGCACACGUCU [G9C U10G U11C C12U C13U] was 1.24. The value for GGGUCGUUCGCUGAUAAUCGCGUGGAUAUGGCACGCAAGUUUCUACCGGGCACCGUAAAUGUCCGACUGGAGCCGUUCGGGCGGCUAUAAACAGACCUCAGGCCCGAAGCGUGGCGGCACCUGCCGCCGGUGGUAAAAAAGAUCGGAAGAGCACACGUCU [G9C U10G U11C C12U C13G] was 1.09; that for GGGUCGUUCGCUAAUAAUCGCGUGGAUAUGGCACGCAAGUUUCUACCGGGCACCGUAAAUGUCCGACUGGAGCCGUUCGGGCGGCUAUAAACAGACCUCAGGCCCGAAGCGUGGCGGCACCUGCCGCCGGUGGUAAAAAAGAUCGGAAGAGCACACGUCU [G9C U10G U11C C12U C13A] was 1.2.

(Values after the RNAGym collection of RNA variant scans (doi:10.1021/acssynbio.7b00057).)
